The target of one data set is ATF4 (UniProt P18848 1-351). The data set is described as follows: EMSA; ATF4 alone, up to 90 uM; probe 0.25 nM; EMSA: 10 mM HEPES pH 7.8, 50 mM NaCl, 10 mM MgCl2, 5 mM DTT, protease inhibitor, 0.25 mg/ml BSA, 5 ng/ul poly dIdC, 5% glycerol, ~5 fmol probe in 20 ul; native. The settings on record: protein: recombinant; tags: N-terminal His (pET30a); chain copies: 2; label: 32P. A general note: In EMSA bound probe runs differently from free probe, usually more slowly.
Chain of ATF4 (P18848 whole entry): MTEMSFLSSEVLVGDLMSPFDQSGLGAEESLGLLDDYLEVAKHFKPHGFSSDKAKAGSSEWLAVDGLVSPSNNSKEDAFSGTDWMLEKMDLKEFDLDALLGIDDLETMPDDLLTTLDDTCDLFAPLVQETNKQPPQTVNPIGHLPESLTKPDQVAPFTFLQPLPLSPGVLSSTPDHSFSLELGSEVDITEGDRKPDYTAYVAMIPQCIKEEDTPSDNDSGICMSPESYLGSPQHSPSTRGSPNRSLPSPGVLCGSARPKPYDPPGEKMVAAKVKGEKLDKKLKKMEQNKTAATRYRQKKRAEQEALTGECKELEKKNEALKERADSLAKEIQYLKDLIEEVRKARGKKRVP

The target in a further data set is C/EBPβ (UniProt P17676 1-345). The data set can be described thus: EMSA; C/EBPβ 100-900 nM; preferred site; probe 0.25 nM; EMSA: 10 mM HEPES pH 7.8, 50 mM NaCl, 10 mM MgCl2, 5 mM DTT, protease inhibitor, 0.25 mg/ml BSA, 5 ng/ul poly dIdC, 5% glycerol, ~5 fmol probe in 20 ul; native. The settings on record: protein: recombinant; tags: N-terminal His (pET30a); chain copies: 2; label: 32P.
Chain of C/EBPβ (P17676 whole entry): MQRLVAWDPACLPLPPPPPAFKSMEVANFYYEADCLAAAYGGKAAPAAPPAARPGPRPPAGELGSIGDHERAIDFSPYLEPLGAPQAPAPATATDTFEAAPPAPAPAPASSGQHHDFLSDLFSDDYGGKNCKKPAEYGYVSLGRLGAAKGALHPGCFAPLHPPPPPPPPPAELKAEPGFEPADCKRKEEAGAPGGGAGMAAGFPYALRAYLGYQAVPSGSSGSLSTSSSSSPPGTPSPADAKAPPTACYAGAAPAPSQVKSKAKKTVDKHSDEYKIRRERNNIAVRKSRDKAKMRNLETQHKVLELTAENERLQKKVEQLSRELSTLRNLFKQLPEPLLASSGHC

Data set [1] addresses C/EBPβ (heterodimer subunit);ATF4 (heterodimer subunit) (human?;human?, UniProt P17676;P18848 1-345;1-351, |). The data set can be described thus: EMSA; ATF4 added to C/EBPβ; higher affinity than C/EBPβ homodimer; antibodies inhibit heterodimer binding; EMSA: 10 mM HEPES pH 7.8, 50 mM NaCl, 10 mM MgCl2, 5 mM DTT, protease inhibitor, 0.25 mg/ml BSA, 5 ng/ul poly dIdC, 5% glycerol, ~5 fmol probe in 20 ul; native. The settings on record: protein: recombinant;recombinant; tags: N-terminal His (pET30a);N-terminal His (pET30a); copies: 1;1; label: 32P.

Results on two molecules are retold here after paper PMC4501333, “ATF4 licenses C/EBPβ activity in human mesenchymal stem cells primed for adipogenesis”.

Chain of C/EBPβ (heterodimer subunit);ATF4 (heterodimer subunit) (P17676 whole entry, chain 1 of 2): as the sequence (P17676 whole entry) above
Chain of C/EBPβ (heterodimer subunit);ATF4 (heterodimer subunit) (P18848 whole entry, chain 2 of 2): as the sequence (P18848 whole entry) above

B1: palindromic C/EBP EMSA probe (dsDNA)
DNA 1: GAGCAAATATTGCGCAATATAAGTC
DNA 2: GGACTTATATTGCGCAATATTTGCT
Consider B1, for which the binding result is on record as “no binding” with ATF4 and “binds” in the data set with C/EBPβ.

B2: hybrid (ATF4 motif) EMSA probe (dsDNA)
DNA 1: GAGCAAATCTGATGCAATATAAGTC
DNA 2: GGACTTATATTGCATCAGATTTGCT
As to B2, the binding result with ATF4 was “no binding”; in data set [1], “binds”.
